# Experimental data reported in article PMC5608764, “Aromatic side-chain conformational switch on the surface of the RNA Recognition Motif enables RNA discrimination”.
# Key:
# CUG-BP2 RRM3 wild-type [1] = target: T1, CUG-BP2 RRM3 wild-type (UniProt O95319 416-508, Y508W); assay: NMR 15N-HSQC titration; 20 mM K phosphate pH 5.8, 10 mM NaCl, 0.1% beta-mercaptoethanol, 25 C (NMR titrations and ITC); hnRNP A1: 10 mM Na phosphate pH 6.5, 10 mM beta-mercaptoethanol; details: protein: recombinant
# CUG-BP2 RRM3 wild-type [2] = target: T1, CUG-BP2 RRM3 wild-type; assay: ITC; 25 C; 20 mM K phosphate pH 5.8, 10 mM NaCl, 0.1% beta-mercaptoethanol, 25 C (NMR titrations and ITC); hnRNP A1: 10 mM Na phosphate pH 6.5, 10 mM beta-mercaptoethanol; details: protein: recombinant
# CUG-BP2 RRM3 F455A [3] = target: T2, CUG-BP2 RRM3 F455A (UniProt O95319 416-508, F455A;Y508W); assay: as above; details: protein: recombinant; tags: His-tag (pET28a)
# CUG-BP2 RRM3 Y428A [4] = target: T3, CUG-BP2 RRM3 Y428A (UniProt O95319 416-508, Y428A;Y508W); assay: as above; details: protein: recombinant; tags: His-tag (pET28a)
# CUG-BP2 RRM3 H429A [5] = target: T4, CUG-BP2 RRM3 H429A (UniProt O95319 416-508, H429A;Y508W); assay: as above; details: protein: recombinant; tags: His-tag (pET28a)
# CUG-BP2 RRM3 wild-type [6] = target: T1, CUG-BP2 RRM3 wild-type; assay: NMR 15N-HSQC titration; protein mutant series; 20 mM K phosphate pH 5.8, 10 mM NaCl, 0.1% beta-mercaptoethanol, 25 C (NMR titrations and ITC); hnRNP A1: 10 mM Na phosphate pH 6.5, 10 mM beta-mercaptoethanol; details: protein: recombinant
# CUG-BP2 RRM3 F455A [7] = target: T2, CUG-BP2 RRM3 F455A; assay: NMR 15N-HSQC titration; 20 mM K phosphate pH 5.8, 10 mM NaCl, 0.1% beta-mercaptoethanol, 25 C (NMR titrations and ITC); hnRNP A1: 10 mM Na phosphate pH 6.5, 10 mM beta-mercaptoethanol; details: protein: recombinant; tags: His-tag (pET28a)
# CUG-BP2 RRM3 Y428A [8] = target: T3, CUG-BP2 RRM3 Y428A; assay: as above; details: protein: recombinant; tags: His-tag (pET28a)
# CUG-BP2 RRM3 K453A = CUG-BP2 RRM3 K453A (UniProt O95319 416-508, K453A;Y508W); assay: as above; details: protein: recombinant; tags: His-tag (pET28a)
# CUG-BP2 RRM3 K495A = CUG-BP2 RRM3 K495A (UniProt O95319 416-508, K495A;Y508W); assay: as above; details: protein: recombinant; tags: His-tag (pET28a)
# CUG-BP2 RRM3 Q497A = CUG-BP2 RRM3 Q497A (UniProt O95319 416-508, Q497A;Y508W); assay: as above; details: protein: recombinant; tags: His-tag (pET28a)
# CUG-BP2 RRM3 F426A = CUG-BP2 RRM3 F426A (UniProt O95319 416-508, F426A;Y508W); assay: as above; details: protein: recombinant; tags: His-tag (pET28a)
# CUG-BP2 RRM3 H429A [9] = target: T4, CUG-BP2 RRM3 H429A; assay: as above; details: protein: recombinant; tags: His-tag (pET28a)
# CUG-BP2 RRM3 K499A = CUG-BP2 RRM3 K499A (UniProt O95319 416-508, K499A;Y508W); assay: as above; details: protein: recombinant; tags: His-tag (pET28a)
# CUG-BP2 RRM3 wild-type [10] = target: T1, CUG-BP2 RRM3 wild-type; assay: ITC; 20 mM K phosphate pH 5.8, 10 mM NaCl, 0.1% beta-mercaptoethanol, 25 C (NMR titrations and ITC); hnRNP A1: 10 mM Na phosphate pH 6.5, 10 mM beta-mercaptoethanol; details: protein: recombinant
# CUG-BP2 RRM3 wild-type [11] = target: T1, CUG-BP2 RRM3 wild-type; assay: NMR 15N-HSQC titration; 25 C; RNA variant series; 20 mM K phosphate pH 5.8, 10 mM NaCl, 0.1% beta-mercaptoethanol, 25 C (NMR titrations and ITC); hnRNP A1: 10 mM Na phosphate pH 6.5, 10 mM beta-mercaptoethanol; details: protein: recombinant
# CUG-BP2 RRM3 wild-type [12] = target: T1, CUG-BP2 RRM3 wild-type; assay: NMR 15N-HSQC titration; 25 C; multiple registers; 20 mM K phosphate pH 5.8, 10 mM NaCl, 0.1% beta-mercaptoethanol, 25 C (NMR titrations and ITC); hnRNP A1: 10 mM Na phosphate pH 6.5, 10 mM beta-mercaptoethanol; details: protein: recombinant
# T1 sequence (O95319 416-508 Y508W): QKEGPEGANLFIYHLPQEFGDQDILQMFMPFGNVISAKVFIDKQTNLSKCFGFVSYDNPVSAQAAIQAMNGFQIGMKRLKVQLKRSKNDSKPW
# T4 sequence (O95319 416-508 H429A/Y508W): as the sequence (O95319 416-508 Y508W) above, with H14A counted along it
# T3 sequence (O95319 416-508 Y428A/Y508W): as the sequence (O95319 416-508 Y508W) above, with Y13A counted along it
# T2 sequence (O95319 416-508 F455A/Y508W): as the sequence (O95319 416-508 Y508W) above, with F40A counted along it
# CUG-BP2 RRM3 K499A, sequence (O95319 416-508 K499A/Y508W): as the sequence (O95319 416-508 Y508W) above, with K84A counted along it
# CUG-BP2 RRM3 Q497A, sequence (O95319 416-508 Q497A/Y508W): as the sequence (O95319 416-508 Y508W) above, with Q82A counted along it
# CUG-BP2 RRM3 K495A, sequence (O95319 416-508 K495A/Y508W): as the sequence (O95319 416-508 Y508W) above, with K80A counted along it
# CUG-BP2 RRM3 F426A, sequence (O95319 416-508 F426A/Y508W): as the sequence (O95319 416-508 Y508W) above, with F11A counted along it
# CUG-BP2 RRM3 K453A, sequence (O95319 416-508 K453A/Y508W): as the sequence (O95319 416-508 Y508W) above, with K38A counted along it
binder,measurement,setting,value
UUCAA (ssRNA),Kd,CUG-BP2 RRM3 wild-type [1],56 ± 12 µM
UCUAA (ssRNA),Kd,CUG-BP2 RRM3 wild-type [1],76 ± 27 µM
UUUCA (ssRNA),Kd,CUG-BP2 RRM3 wild-type [1],73 ± 13 µM
UGUGU (ssRNA),Kd,CUG-BP2 RRM3 wild-type [2],1.04 ± 0.04 µM
same,Kd,CUG-BP2 RRM3 F455A [3],10.4 ± 0.87 µM
same,Kd,CUG-BP2 RRM3 Y428A [4],0.31 ± 0.01 µM
same,Kd,CUG-BP2 RRM3 H429A [5],0.27 ± 0.05 µM
UUUAA (ssRNA),Kd,CUG-BP2 RRM3 wild-type [6],62 ± 12 µM
same,Kd,CUG-BP2 RRM3 F455A [7],41 ± 5 µM
same,Kd,CUG-BP2 RRM3 Y428A [8],27 ± 3 µM
same,Kd,CUG-BP2 RRM3 K453A,78 ± 13 µM
same,Kd,CUG-BP2 RRM3 K495A,63 ± 6 µM
same,Kd,CUG-BP2 RRM3 Q497A,60 ± 10 µM
same,Kd,CUG-BP2 RRM3 F426A,139 ± 10 µM
same,Kd,CUG-BP2 RRM3 H429A [9],30 ± 4 µM
same,Kd,CUG-BP2 RRM3 K499A,91 ± 18 µM
same,Kd,CUG-BP2 RRM3 wild-type [10],18 µM
same,Kd,CUG-BP2 RRM3 wild-type [11],66 ± 14 µM
CUUAA (ssRNA),Kd,CUG-BP2 RRM3 wild-type [1],54 ± 9 µM
UUUAC (ssRNA),Kd,CUG-BP2 RRM3 wild-type [1],56 ± 8 µM
AUUUAAUU (ssRNA),Kd,CUG-BP2 RRM3 wild-type [12],31 ± 9 µM
